From publication PMC11754596

Target: p53 (UniProt P04637)
Test: anti-Flag IP, anti-HA blot
Conditions: reference: HA-STAT1 wild type; sites Y701

STAT1 (from UniProt P42224) HA-STAT1-Y701F
binding against the reference: weaker
